Laboratory results taken from US20230277628A1, “METHODS FOR PROMOTING ANTI-TUMOR IMMUNE RESPONSE IN A SUBJECT IN NEED THEREOF USING ENCAPSULATED INTERLEUKIN 12” (Spectrum Pharmaceuticals, Inc., priority 2022, published 2023).

Key:
[1] = tested on: GL-261 glioma cells; assay: Survival in the GL-261 orthotopic murine glioma model; format: in vivo; conditions: for # censored mice: n=22, Day 71
Procedure: (§1) In an orthotopic murine glioma model, C57B6 mice were inoculated with 3 × 10^5 GL-261 glioma cells in the frontal lobe via intracranial injection with drug treatment on Day 5. Mice were randomly assigned (n=22/group) to receive a single intratumoral dose of mPCX12 at 0.5, 0.75, and 1 mg, or mrIL-12 1 µg (equivalent to mPCX12 1 mg) or empty shells or vehicle. In addition, lomustine (6 mg/kg, QDx5 i.p.) was also assessed. […] At 1 mg mPCX12, tumor IL-12 and IFNy levels were 2069±631 and 646±8 pg/mg respectively on Day 3. […] At Day 90, 41%, 45%, and 55% of the animals that received doses of 0.5, 0.75 or 1 mg mPCX12, respectively, were alive with median survival >90 days (last day of study).
In a second study, GL-261 inoculated mice (n=22 per group) received a single dose of mPCX12 at 0.5, 0.75, and 1 mg. Control treatment groups were, mrIL-12, 0.5 and 1 µg (equivalent to mPCX12 0.5 and 1 mg) or empty shells (1 mg) or vehicle control intratumoral. In addition, lomustine (6 mg/kg, QDx5 i.p.) was also assessed. Day 71 was the last day of the study. Animals were euthanized when they became moribund.
PCX12 (1 mg) >50% of mice survived to the end of the study (Day 71) and were tumor-free.

[2] = tested on: GL-261 glioma cells; set-up: species or system C57B6 mice; conditions: mouse, in vivo
Procedure: as §1
In the first study, six days post GL-261 inoculation, a single dose of mPCX12 at 0.5, 0.75, and 1 mg was administered to 4 animals per timepoint (TP). Control treatment groups were, mrIL-12 1 µg (equivalent to mPCX12 1 mg) or empty shells. In addition, lomustine (6 mg/kg, QDx5 i.p.) was also assessed. At 3- and 7-days post drug administration, animals were euthanized, serum and tumor IL-12 and IFN-γ levels were determined via ELISA.
Low levels of IL-12 and IFN-γ observed in the systemic circulation of mPCX12 and mrIL-12 groups. FIGS. 1A-D: All values expressed as Mean +/- SEM; n=4 per timepoint; ND: Not Detected.

Molecule | % alive at 71 Days Post Treatment ([1]; Lomustine 6 mg/kg QDx5 i.p.) [%] | # censored mice ([1]; Lomustine 6 mg/kg QDx5 i.p.) | Median survival ([1]; Lomustine 6 mg/kg QDx5 i.p., study end Day 71) [days] | Median survival ([1]; lomustine 6 mg/kg QDx5 i.p., text b126 (last day of study Day 90)) [days] | Median survival ([1]; mrIL-12 1 µg intratumoral, text b126 (last day of study Day 90)) [days] | % alive at 71 Days Post Treatment ([1]; rmIL-12 0.5 µg) [%] | Median survival ([1]; rmIL-12 0.5 µg intratumoral, study end Day 71) [days] | # censored mice ([1]; rmIL-12 0.5 µg) | % alive at 71 Days Post Treatment ([1]; rmIL-12 1 µg) [%] | Median survival ([1]; rmIL-12 1 µg intratumoral, study end Day 71) [days] | # censored mice ([1]; rmIL-12 1 µg) | IL-12 and IFNγ in the systemic circulation [2] | tumor IL-12 persistence by Day 7 [2]
O=NN(CCCl)C(=O)NC1CCCCC1 [Lomustine, lomustine, reference compound] | 18 | 4 | 38 | 20 | – | – | – | – | – | – | – | – | –
rmIL-12: mouse recombinant IL-12, unencapsulated control; 1 µg equivalent to mPCX12 1 mg (protein, UniProt P43431 23-215; P43432 23-335, looked up) Interleukin-12 subunit alpha: RVIPVSGPARCLSQSRNLLKTTDDMVKTAREKLKHYSCTAEDIDHEDITRDQTSTLKTCLPLELHKNESCLATRETSSTTRGSCLPPQKTSLMMTLCLGSIYEDLKMYQTEFQAINAALQNHNHQQIILDKGMLVAIDELMQSLNHNGETLRQKPPVGEADPYRVKMKLCILLHAFSTRVVTINRVMGYLSSA Interleukin-12 subunit beta: MWELEKDVYVVEVDWTPDAPGETVNLTCDTPEEDDITWTSDQRHGVIGSGKTLTITVKEFLDAGQYTCHKGGETLSHSHLLLHKKENGIWSTEILKNFKNKTFLKCEAPNYSGRFTCSWLVQRNMDLKFNIKSSSSSPDSRAVTCGMASLSAEKVTLDQRDYEKYSVSCQEDVTCPTAEETLPIELALEARQQNKYENYSTSFFIRDIIKPDPPKNLQMKPLKNSQVEVSWEYPDSWSTPHSYFSLKFFVRIQRKKEKMKETEEGCNQKGAFLVEKTSTEVQCKGGNVCVQAQDRYYNSSCSKWACVPCRVRS | – | – | – | – | 37 | 45 | 38 | 10 | 41 | 37 | 9 | Low levels | returned to baseline
